Paper PMC7379371

Tests used:
[1] = target: chimeric antibody I3.1 Fab (human); experiment: BLI; fortéBIO BLItz; Fab (0.2 mg/mL) immobilised on Anti-Human Fab-CH1 second generation biosensors; gp120 core in solution at three or more concentrations (9.6 to 110 μM); 10 mM Tris, pH 7.5, 100 mM NaCl; global fit of at least three measurements
[2] = target: chimeric antibody I3.1 Fab (human); experiment: BLI; […]; Fab (0.2 mg/mL) […] (9.6 to 110 μM); 10 mM Tris, pH 7.5, 100 mM NaCl; […]

Chain of chimeric antibody I3.1 Fab (human) (heavy, as listed by the source, chain 1 of 2): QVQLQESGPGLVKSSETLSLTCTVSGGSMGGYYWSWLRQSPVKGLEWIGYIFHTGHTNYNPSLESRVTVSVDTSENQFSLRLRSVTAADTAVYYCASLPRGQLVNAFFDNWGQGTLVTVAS
Chain of chimeric antibody I3.1 Fab (human) (light, as listed by the source, chain 2 of 2): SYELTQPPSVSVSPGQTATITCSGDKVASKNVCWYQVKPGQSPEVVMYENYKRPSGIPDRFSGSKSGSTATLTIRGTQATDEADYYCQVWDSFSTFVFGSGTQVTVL

With “92UG037.8 gp120 core WT (domain or fragment)” as the substance, how does the Kd [1] read?
The Kd was 3.28 µM.

Which Kd [2] does the source give for “CH505 T/F gp120 core WT (domain or fragment)” here?
The Kd was 1980 nM.
